Source: US20240425607A1, “IL-18BP ANTAGONIST ANTIBODIES AND THEIR USE IN MONOTHERAPY AND COMBINATION THERAPY IN THE TREATMENT OF CANCER” (Compugen Ltd., priority 2023, published 2024)
Residue numbers refer to the chain shown, from its start.

B1: ADI-71710: anti-IL18-BP antibody, sequences in FIG. 2I; 66650 lineage (antibody, V domains shown)
VH: QVQLVQSGAEVKKPGASVKVSCKASGYTFGIYAMHWVRQAPGQRLEWMGWIHAGTGVTKYSQKFQGRVTITRDTSASTAYMELSSLRSEDTAVYYCARGLGEVGPTGTSWFDPWGQGTLVTVSS
VL: DIQMTQSPSTLSASVGDRVTITCRASQSISSWLAWYQQKPGKAPKLLIYEASSLESGVPSRFSGSGSGTEFTLTISSLQPDDFATYYCQQYRYSPFTFGGGTKVEIK
B2: ADI-71719: anti-IL18-BP antibody, sequences in FIG. 2B; 66670 lineage (antibody, V domains shown)
VH: QVQLVQSGAEVKKPGSSVKVSCKASGGTFNSYVISWVRQAPGQGLEWMGGIIPGAGTANYAQKFQGRVTITADESTSTAYMELSSLRSEDTAVYYCARGRHSHETWGQGTLVTVSS
VL: DIQMTQSPSSVSASVGDRVTITCRASQGISSWLAWYQQKPGKAPKLLIYAASSLQSGVPSRFSGSGSGTDFTLTISSLQPEDFATYYCQQVYSLPWTFGGGTKVEIK
B3: ADI-71736: anti-IL18-BP antibody, sequences in FIG. 2L; 66716 lineage (antibody, V domains shown)
VH: QLQLQESGPGLVKPSETLSLTCTVSGGSISSSEYGWGWIRQPPGKGLEWIGSIVNSGSTYYNPSLKSRVTISVDTSKNQFSLKLSSVTAADTAVYYCARGPHRQVFDYWGQGTLVTVSS
VL: B2 VL with L46H, V91G, Y92F, L94F, W96Y
B4: ADI-71753: anti-IL18-BP antibody, sequences in FIG. 2S (antibody, V domains shown)
VH: B3 VH with S30F, E33D, G35Y, G37S, S52V, V54A, N55Y, V87A, H102F
VL: B2 VL with V91G, Y92S, L94F, W96Y
B5: ADI-71744: anti-IL18-BP antibody, sequences in FIG. 2R (antibody, V domains shown)
VH: B3 VH with H102Y
VL: B2 VL with V91G, Y92W, L94F, W96Y
B6: ADI-71720: anti-IL18-BP antibody, sequences in FIG. 2C; 66670 lineage (antibody, V domains shown)
VH: B2 VH with N30S, S31E
VL: B2 VL with S76G
B7: ADI-71742: anti-IL18-BP antibody, sequences in FIG. 2Q (antibody, V domains shown)
VH: B3 VH with G8S, S32P, E33D, G35P, V54F, N55Y, S58N
VL: B2 VL with V91G, Y92W, L94F, W96Y
B8: ADI-71728: anti-IL18-BP antibody, sequences in FIG. 2O; 66670 lineage (antibody, V domains shown)
VH: B2 VH with N30S, S31E, V33P, G54Y, A55S, N59V, S102G
VL: B2 VL with L94I
B9: ADI-71741: anti-IL18-BP antibody, sequences in FIG. 2P (antibody, V domains shown)
VH: B3 VH with E33D, G35P, V54Y, N55Y, H102Y
VL: B2 VL with V91G, Y92N, L94F, W96Y
B10: ADI-71755: anti-IL18-BP antibody, sequences in FIG. 2T (antibody, V domains shown)
VH: B3 VH with S32P, E33D, G35P, V54F, N55Y, S58N, H102F
VL: B2 VL with V91G, Y92W, L94F, W96Y

Key:
[1] = Fab Tm by dynamic scanning fluorimetry (DSF); assay type: physicochemical; details: optimized antibodies
Procedure: 10 μL of 20× Sypro Orange is added to 20 μL of 0.2-1 mg/mL mAb or Fab solution. A RT-PCR instrument (BioRad CFX96 RT PCR) is used to ramp the sample plate temperature from 40 to 95° C. at 0.5° C. increment, with 2 min equilibrate at each temperature. The negative of first derivative for the raw data is used to extract Tm.

SEC-HPLC % monomer = assay type: physicochemical; details: optimized antibodies
Procedure: A TSKgel SuperSW mAb HTP column (22855) was used for fast SEC analysis of mammalian produced mAbs at 0.4 mL/min with a cycle time of 6 min/run. 200 mM Sodium Phosphate and 250 mM Sodium Chloride was used as the mobile phase.

Molecule	Fab Tm (DSF, ° C.) [1] [°C]	SEC-HPLC, % monomer (SEC-HPLC % monomer) [%]
B1	71.5	97.9
B2	72.5	94.5
B3	73.5	79.2
B4	74.5	96.9
B5	74.5	88.1
B6	72.5	98.6
B7	74.0	91.3
B8	73.0	95.0
B9	73.5	99.4
B10	74.5	92.9
